# Measurements published in patent publication US20140030270A1 (Amgen, published 2014).
# Key:
# human PCSK9 D374Y mutant = human PCSK9 D374Y mutant (human, UniProt Q8NBP7 31-692, biotinylated in the LDLR binding ELISAs (sites not given)); assay: cell-based or functional assay
# human PCSK9 (wild-type) = human PCSK9 (wild-type) (human, UniProt Q8NBP7 31-692, biotinylated in the ELISA formats (sites not given); untagged and unlabelled in Biacore/KinExA); assay: cell-based or functional assay
binder,measurement,setting,value
"11F1 anti-PCSK9 antibody (antibody, V domains shown) VH: EVQLVESGGGLVQPGGSLRLSCAASGFTFSNYWMSWVRQAPGKGLEWVASIKQDGSEKYYVDSVKGRFAISRDNAKNSLFLQMNSLRAEDTAVYYCARDLVLMVYDIDYYYYGMDVWGQGTTVTVSS VL: not shown","EC50, block of D374Y PCSK9-mediated decrease of LDL uptake in HepG2 cells (BODIPY-LDL)",human PCSK9 D374Y mutant,35.3 nM
same,"EC50, block of WT PCSK9-mediated decrease in LDL uptake in HepG2 cells (BODIPY-LDL)",human PCSK9 (wild-type),124 nM
